According to patent US20030190342A1:

What was measured:
[1] = molecular target: human collagen type III (human) (UniProt P02461); experiment: microtiter plate competition: inhibition of binding of vWF in diluted human plasma to coated human collagen type III
[2] = molecular target: calf skin collagen (calf); experiment: microtiter plate competition: inhibition of binding of vWF in diluted murine plasma to coated calf skin collagen
[3] = molecular target: human collagen type I (human) (UniProt P02452); experiment: microtiter plate competition: inhibition of purified human vWF binding to coated human collagen I; competitor purified human vWF, detected with anti-vWF-HRP
[4] = molecular target: human collagen type III (human) (UniProt P02461); experiment: microtiter plate competition: inhibition of purified human vWF binding to coated human collagen III; competitor purified human vWF, detected with anti-vWF-HRP
[5] = molecular target: human collagen type III (human) (UniProt P02461); experiment: microtiter plate competition: inhibition of binding of vWF in diluted murine plasma to coated human collagen type III
[6] = molecular target: calf skin collagen (calf); experiment: microtiter plate competition: inhibition of binding of vWF in diluted hamster plasma to coated calf skin collagen
[7] = molecular target: collagen (platelet aggregation agonist, 0.5 µg ml^-1); experiment: cell-based or functional assay
[8] = molecular target: calf skin collagen (calf); experiment: cell-based or functional assay
[9] = molecular target: human collagen type III (human) (UniProt P02461); experiment: SPR (BIAcore 3000), immobilised human collagen type III, Scatchard analysis of plateau RU; high affinity site
[10] = molecular target: calf skin collagen (calf); experiment: microtiter plate competition: inhibition of binding of vWF in diluted porcine plasma to coated calf skin collagen
[11] = molecular target: calf skin collagen (calf); experiment: microtiter plate competition: inhibition of binding of vWF in diluted human plasma to coated calf skin collagen
[12] = molecular target: human collagen type I (human) (UniProt P02452); experiment: microtiter plate competition: inhibition of binding of vWF in diluted porcine plasma to coated human collagen type I
[13] = molecular target: human collagen type I (human) (UniProt P02452); experiment: microtiter plate competition: inhibition of binding of vWF in diluted hamster plasma to coated human collagen type I
[14] = molecular target: human collagen type I (human) (UniProt P02452); experiment: microtiter plate competition: inhibition of binding of vWF in diluted human plasma to coated human collagen type I
[15] = molecular target: human collagen type III (human) (UniProt P02461); experiment: SPR (BIAcore 3000), immobilised human collagen type III, Scatchard analysis of plateau RU; low affinity site
[16] = molecular target: human collagen type I (human) (UniProt P02452); experiment: microtiter plate competition: inhibition of binding of vWF in diluted murine plasma to coated human collagen type I
[17] = molecular target: human collagen type III (human) (UniProt P02461); experiment: microtiter plate competition: inhibition of binding of vWF in diluted porcine plasma to coated human collagen type III
[18] = molecular target: calf skin collagen (calf); experiment: microtiter plate competition: inhibition of purified human vWF binding to coated calf skin collagen; competitor purified human vWF, detected with anti-vWF-HRP

UniProt P02452, sequence (P02452 162-1218, chain 1 of 2): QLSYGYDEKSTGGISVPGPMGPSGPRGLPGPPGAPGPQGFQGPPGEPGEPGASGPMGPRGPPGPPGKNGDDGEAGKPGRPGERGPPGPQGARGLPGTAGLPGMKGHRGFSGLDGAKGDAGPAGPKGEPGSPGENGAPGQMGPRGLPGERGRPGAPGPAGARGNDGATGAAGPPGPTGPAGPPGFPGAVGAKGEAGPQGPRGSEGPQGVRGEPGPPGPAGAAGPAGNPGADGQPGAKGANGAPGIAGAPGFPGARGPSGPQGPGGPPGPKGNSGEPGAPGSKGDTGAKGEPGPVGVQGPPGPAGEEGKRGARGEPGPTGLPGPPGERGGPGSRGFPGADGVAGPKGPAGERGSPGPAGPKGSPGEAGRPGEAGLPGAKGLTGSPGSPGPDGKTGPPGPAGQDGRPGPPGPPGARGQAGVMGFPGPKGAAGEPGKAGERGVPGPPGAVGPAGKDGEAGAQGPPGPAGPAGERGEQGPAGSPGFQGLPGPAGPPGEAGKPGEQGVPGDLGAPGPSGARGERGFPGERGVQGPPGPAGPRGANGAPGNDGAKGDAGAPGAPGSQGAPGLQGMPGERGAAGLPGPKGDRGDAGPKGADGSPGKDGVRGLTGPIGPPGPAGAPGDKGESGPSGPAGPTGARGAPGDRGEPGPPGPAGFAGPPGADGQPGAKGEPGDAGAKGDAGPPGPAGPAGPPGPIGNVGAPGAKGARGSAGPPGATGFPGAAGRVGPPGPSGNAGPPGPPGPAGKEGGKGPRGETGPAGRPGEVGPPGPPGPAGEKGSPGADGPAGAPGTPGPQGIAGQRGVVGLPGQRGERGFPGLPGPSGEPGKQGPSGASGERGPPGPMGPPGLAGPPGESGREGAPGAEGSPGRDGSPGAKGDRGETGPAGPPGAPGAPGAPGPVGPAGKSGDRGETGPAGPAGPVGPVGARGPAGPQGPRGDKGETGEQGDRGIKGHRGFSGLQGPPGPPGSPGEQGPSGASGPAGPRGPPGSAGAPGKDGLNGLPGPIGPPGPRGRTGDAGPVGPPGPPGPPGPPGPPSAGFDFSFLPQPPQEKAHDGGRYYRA
UniProt P02452, sequence (P08123 80-1119, chain 2 of 2, further chain): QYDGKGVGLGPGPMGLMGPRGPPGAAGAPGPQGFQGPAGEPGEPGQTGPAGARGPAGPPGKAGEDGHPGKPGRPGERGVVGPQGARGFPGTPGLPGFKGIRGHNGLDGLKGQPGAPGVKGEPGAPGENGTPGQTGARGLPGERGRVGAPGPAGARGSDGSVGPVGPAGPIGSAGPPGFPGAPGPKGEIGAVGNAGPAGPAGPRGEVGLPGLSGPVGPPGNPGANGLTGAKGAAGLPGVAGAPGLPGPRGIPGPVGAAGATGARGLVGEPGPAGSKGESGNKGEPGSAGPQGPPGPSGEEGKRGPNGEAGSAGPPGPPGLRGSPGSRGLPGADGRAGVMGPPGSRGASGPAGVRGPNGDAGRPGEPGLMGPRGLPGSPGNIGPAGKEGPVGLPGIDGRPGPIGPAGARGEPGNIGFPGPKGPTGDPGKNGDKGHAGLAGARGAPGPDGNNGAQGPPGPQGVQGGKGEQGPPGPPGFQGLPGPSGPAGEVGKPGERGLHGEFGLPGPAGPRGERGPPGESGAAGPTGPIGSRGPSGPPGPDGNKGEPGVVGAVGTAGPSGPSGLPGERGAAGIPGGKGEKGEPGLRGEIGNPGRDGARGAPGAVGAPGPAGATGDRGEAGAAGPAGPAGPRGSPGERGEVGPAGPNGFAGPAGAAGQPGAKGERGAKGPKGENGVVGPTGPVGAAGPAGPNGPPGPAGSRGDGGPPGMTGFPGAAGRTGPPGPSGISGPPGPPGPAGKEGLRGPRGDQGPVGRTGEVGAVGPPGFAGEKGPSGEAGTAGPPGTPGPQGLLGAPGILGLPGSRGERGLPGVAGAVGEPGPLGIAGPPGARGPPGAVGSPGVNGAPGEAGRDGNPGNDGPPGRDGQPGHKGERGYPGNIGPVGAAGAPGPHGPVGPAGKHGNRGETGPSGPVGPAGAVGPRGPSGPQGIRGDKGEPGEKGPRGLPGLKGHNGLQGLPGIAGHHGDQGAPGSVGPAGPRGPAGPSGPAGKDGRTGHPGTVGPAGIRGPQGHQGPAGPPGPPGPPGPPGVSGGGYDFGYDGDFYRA
UniProt P02461, sequence (P02461 154-1221): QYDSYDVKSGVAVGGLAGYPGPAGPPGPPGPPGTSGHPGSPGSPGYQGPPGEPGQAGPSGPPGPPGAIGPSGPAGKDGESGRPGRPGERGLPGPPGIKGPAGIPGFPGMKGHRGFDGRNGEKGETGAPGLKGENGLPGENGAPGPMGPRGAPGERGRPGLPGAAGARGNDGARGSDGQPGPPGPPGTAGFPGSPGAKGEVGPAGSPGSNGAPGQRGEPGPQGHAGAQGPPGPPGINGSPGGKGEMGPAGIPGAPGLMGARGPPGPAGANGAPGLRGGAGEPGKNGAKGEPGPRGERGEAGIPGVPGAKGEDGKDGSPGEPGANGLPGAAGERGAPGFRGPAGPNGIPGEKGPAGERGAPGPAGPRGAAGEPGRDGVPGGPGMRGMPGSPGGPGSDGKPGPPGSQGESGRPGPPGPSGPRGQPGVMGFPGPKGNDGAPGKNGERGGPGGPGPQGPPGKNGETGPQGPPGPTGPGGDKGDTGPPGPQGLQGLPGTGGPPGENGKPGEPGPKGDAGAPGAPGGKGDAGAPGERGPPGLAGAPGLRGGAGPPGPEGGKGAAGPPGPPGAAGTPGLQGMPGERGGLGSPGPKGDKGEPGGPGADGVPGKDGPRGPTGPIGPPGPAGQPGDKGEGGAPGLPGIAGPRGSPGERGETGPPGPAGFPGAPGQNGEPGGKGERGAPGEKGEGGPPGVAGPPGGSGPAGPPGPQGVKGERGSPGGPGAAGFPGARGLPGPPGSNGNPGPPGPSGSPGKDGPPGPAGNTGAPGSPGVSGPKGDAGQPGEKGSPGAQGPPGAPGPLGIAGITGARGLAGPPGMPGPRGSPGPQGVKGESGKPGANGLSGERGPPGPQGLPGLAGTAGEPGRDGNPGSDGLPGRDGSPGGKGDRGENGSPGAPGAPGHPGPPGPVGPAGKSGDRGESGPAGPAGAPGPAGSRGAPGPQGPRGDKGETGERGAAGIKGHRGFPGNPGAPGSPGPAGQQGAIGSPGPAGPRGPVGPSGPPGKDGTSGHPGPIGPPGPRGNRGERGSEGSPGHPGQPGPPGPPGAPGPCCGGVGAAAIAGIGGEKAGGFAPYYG

IC50 [1]: 0.9 µg/mL
IC50 [2]: 0.3 µg/mL
IC50 [3]: 0.23 µg/mL
IC50 [4]: 0.81 µg/mL
IC50 [5]: 0.6 µg/mL
IC50 [6]: 7 µg/mL
Aggregation (%) of platelet-rich plasma induced by collagen at 10 µg ml^-1 saratin [7]: 67%
Aggregation (%) of platelet-rich plasma induced by collagen at 20 µg ml^-1 saratin [7]: 63%
Aggregation (%) of platelet-rich plasma induced by collagen at 40 µg ml^-1 saratin [7]: 64%
Aggregation (%) of platelet-rich plasma induced by collagen at 200 µg ml^-1 saratin [7]: 0%
IC50 of inhibition of platelet adhesion to collagen-coated coverslips, flow chamber, shear rate 1300 s^-1 [8]: 5.2 µg/mL
IC50 of inhibition of platelet adhesion to collagen-coated coverslips, flow chamber, shear rate 2700 s^-1 [8]: 0.96 µg/mL
inhibition of platelet adhesion to collagen-coated coverslips, flow chamber, shear rate 300 s^-1 [8]: > 10 µg/mL
Kd [9]: 0.05 µM
IC50 [10]: 0.5 µg/mL
IC50 [11]: 0.3 µg/mL
IC50 [12]: 0.2 µg/mL
IC50 [13]: 0.4 µg/mL
IC50 [14]: 0.2 µg/mL
Kd [15]: 2 µM
IC50 [16]: 0.1 µg/mL
IC50 [17]: 0.5 µg/mL
IC50 [18]: 0.44 µg/mL
Substance: Saratin
